Reference: patent US20200079833A1 (AstraZeneca / MedImmune, published 2020)
Starred links: 1 amine or outer side, 2 acyl side, 3 side chain; linkers in the order of their positions; H or OH if unused. Non-standard residues stand in square brackets, D forms with d. Groups on a side chain read outwards from the residue. Primed or numbered codes have the meaning given here. No end group written: not given here. *: point of attachment. γGlu = O=C(O)[C@H](CCC(=O)[*:2])N[*:1]; Stearoyl = CCCCCCCCCCCCCCCCCC(=O)*; Palmitoyl = CCCCCCCCCCCCCCCC(=O)*; αMeF = C[C@](N)(Cc1ccccc1)C(=O)O; αMeK = C[C@](N)(CCCCN)C(=O)O; αMeS = C[C@](N)(CO)C(=O)O; PEG2′ = not defined here; Aib = CC(C)(N)C(=O)O; Ahx = NCCCCCC(=O)O

T1: glucose-dependent insulinotropic peptide (gastric inhibitory polypeptide) receptor (GIPR) (human, UniProt P48546 22-466)
T1 sequence (looked up): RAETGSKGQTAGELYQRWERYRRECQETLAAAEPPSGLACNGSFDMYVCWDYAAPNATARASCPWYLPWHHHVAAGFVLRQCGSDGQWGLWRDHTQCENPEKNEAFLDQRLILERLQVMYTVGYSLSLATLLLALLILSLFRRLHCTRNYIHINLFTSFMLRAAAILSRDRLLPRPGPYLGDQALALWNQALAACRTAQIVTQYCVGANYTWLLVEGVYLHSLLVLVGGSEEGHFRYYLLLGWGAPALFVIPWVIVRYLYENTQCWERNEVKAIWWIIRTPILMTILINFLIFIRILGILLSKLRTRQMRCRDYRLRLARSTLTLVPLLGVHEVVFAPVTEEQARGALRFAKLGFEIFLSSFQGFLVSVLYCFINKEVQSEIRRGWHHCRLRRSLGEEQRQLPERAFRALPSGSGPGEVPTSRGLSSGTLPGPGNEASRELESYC

B1: SEQ ID NO 79 (peptide)
peptide: H[Aib]EGS[αMeF]TSDV[αMeS]S[αMeF]LEGEAA[αMeK]K([γGlu-Palmitoyl])[αMeF]IA[αMeF]VV[αMeK]GG-NH2
modifications: N-terminus assumed
SMILES: CCCCCCCCCCCCCCCC(=O)N[C@@H](CCC(=O)NCCCC[C@H](NC(=O)[C@](C)(CCCCN)NC(=O)[C@H](C)NC(=O)[C@H](C)NC(=O)[C@H](CCC(=O)O)NC(=O)CNC(=O)[C@H](CCC(=O)O)NC(=O)[C@H](CC(C)C)NC(=O)[C@](C)(Cc1ccccc1)NC(=O)[C@H](CO)NC(=O)[C@](C)(CO)NC(=O)[C@@H](NC(=O)[C@H](CC(=O)O)NC(=O)[C@H](CO)NC(=O)[C@@H](NC(=O)[C@](C)(Cc1ccccc1)NC(=O)[C@H](CO)NC(=O)CNC(=O)[C@H](CCC(=O)O)NC(=O)C(C)(C)NC(=O)[C@@H](N)Cc1c[nH]cn1)[C@@H](C)O)C(C)C)C(=O)N[C@@](C)(Cc1ccccc1)C(=O)N[C@H](C(=O)N[C@@H](C)C(=O)N[C@@](C)(Cc1ccccc1)C(=O)N[C@H](C(=O)N[C@H](C(=O)N[C@@](C)(CCCCN)C(=O)NCC(=O)NCC(N)=O)C(C)C)C(C)C)[C@@H](C)CC)C(=O)O
B2: SEQ ID NO 151 (peptide)
peptide: H[Aib]EGS[αMeF]TSDV[αMeS]S[αMeF]LEGEAAK([Ahx-Ahx-Ahx-Stearoyl])E[αMeF]IA[αMeF]VV[αMeK]GG-NH2
modifications: N-terminus assumed
SMILES: CCCCCCCCCCCCCCCCCC(=O)NCCCCCC(=O)NCCCCCC(=O)NCCCCCC(=O)NCCCC[C@H](NC(=O)[C@H](C)NC(=O)[C@H](C)NC(=O)[C@H](CCC(=O)O)NC(=O)CNC(=O)[C@H](CCC(=O)O)NC(=O)[C@H](CC(C)C)NC(=O)[C@](C)(Cc1ccccc1)NC(=O)[C@H](CO)NC(=O)[C@](C)(CO)NC(=O)[C@@H](NC(=O)[C@H](CC(=O)O)NC(=O)[C@H](CO)NC(=O)[C@@H](NC(=O)[C@](C)(Cc1ccccc1)NC(=O)[C@H](CO)NC(=O)CNC(=O)[C@H](CCC(=O)O)NC(=O)C(C)(C)NC(=O)[C@@H](N)Cc1c[nH]cn1)[C@@H](C)O)C(C)C)C(=O)N[C@@H](CCC(=O)O)C(=O)N[C@@](C)(Cc1ccccc1)C(=O)N[C@H](C(=O)N[C@@H](C)C(=O)N[C@@](C)(Cc1ccccc1)C(=O)N[C@H](C(=O)N[C@H](C(=O)N[C@@](C)(CCCCN)C(=O)NCC(=O)NCC(N)=O)C(C)C)C(C)C)[C@@H](C)CC
B3: SEQ ID NO 81 (peptide)
peptide: H[Aib]EGS[αMeF]TSDV[αMeS]S[αMeF]LEGEAK([γGlu-Palmitoyl])[αMeK]E[αMeF]IA[αMeF]VV[αMeK]GG-NH2
modifications: N-terminus assumed
SMILES: CCCCCCCCCCCCCCCC(=O)N[C@@H](CCC(=O)NCCCC[C@H](NC(=O)[C@H](C)NC(=O)[C@H](CCC(=O)O)NC(=O)CNC(=O)[C@H](CCC(=O)O)NC(=O)[C@H](CC(C)C)NC(=O)[C@](C)(Cc1ccccc1)NC(=O)[C@H](CO)NC(=O)[C@](C)(CO)NC(=O)[C@@H](NC(=O)[C@H](CC(=O)O)NC(=O)[C@H](CO)NC(=O)[C@@H](NC(=O)[C@](C)(Cc1ccccc1)NC(=O)[C@H](CO)NC(=O)CNC(=O)[C@H](CCC(=O)O)NC(=O)C(C)(C)NC(=O)[C@@H](N)Cc1c[nH]cn1)[C@@H](C)O)C(C)C)C(=O)N[C@@](C)(CCCCN)C(=O)N[C@@H](CCC(=O)O)C(=O)N[C@@](C)(Cc1ccccc1)C(=O)N[C@H](C(=O)N[C@@H](C)C(=O)N[C@@](C)(Cc1ccccc1)C(=O)N[C@H](C(=O)N[C@H](C(=O)N[C@@](C)(CCCCN)C(=O)NCC(=O)NCC(N)=O)C(C)C)C(C)C)[C@@H](C)CC)C(=O)O
B4: SEQ ID NO 80 (peptide)
peptide: H[Aib]EGS[αMeF]TSDV[αMeS]S[αMeF]LEGEAAK([γGlu-Palmitoyl])E[αMeF]IA[αMeF]VV[αMeK]GG-NH2
modifications: N-terminus assumed
SMILES: CCCCCCCCCCCCCCCC(=O)N[C@@H](CCC(=O)NCCCC[C@H](NC(=O)[C@H](C)NC(=O)[C@H](C)NC(=O)[C@H](CCC(=O)O)NC(=O)CNC(=O)[C@H](CCC(=O)O)NC(=O)[C@H](CC(C)C)NC(=O)[C@](C)(Cc1ccccc1)NC(=O)[C@H](CO)NC(=O)[C@](C)(CO)NC(=O)[C@@H](NC(=O)[C@H](CC(=O)O)NC(=O)[C@H](CO)NC(=O)[C@@H](NC(=O)[C@](C)(Cc1ccccc1)NC(=O)[C@H](CO)NC(=O)CNC(=O)[C@H](CCC(=O)O)NC(=O)C(C)(C)NC(=O)[C@@H](N)Cc1c[nH]cn1)[C@@H](C)O)C(C)C)C(=O)N[C@@H](CCC(=O)O)C(=O)N[C@@](C)(Cc1ccccc1)C(=O)N[C@H](C(=O)N[C@@H](C)C(=O)N[C@@](C)(Cc1ccccc1)C(=O)N[C@H](C(=O)N[C@H](C(=O)N[C@@](C)(CCCCN)C(=O)NCC(=O)NCC(N)=O)C(C)C)C(C)C)[C@@H](C)CC)C(=O)O
B5: SEQ ID NO 78 (peptide)
peptide: H[Aib]EGS[αMeF]TSDV[αMeS]S[αMeF]LEGEAA[αMeK]EK([γGlu-Palmitoyl])IA[αMeF]VV[αMeK]GG-NH2
modifications: N-terminus assumed
SMILES: CCCCCCCCCCCCCCCC(=O)N[C@@H](CCC(=O)NCCCC[C@H](NC(=O)[C@H](CCC(=O)O)NC(=O)[C@](C)(CCCCN)NC(=O)[C@H](C)NC(=O)[C@H](C)NC(=O)[C@H](CCC(=O)O)NC(=O)CNC(=O)[C@H](CCC(=O)O)NC(=O)[C@H](CC(C)C)NC(=O)[C@](C)(Cc1ccccc1)NC(=O)[C@H](CO)NC(=O)[C@](C)(CO)NC(=O)[C@@H](NC(=O)[C@H](CC(=O)O)NC(=O)[C@H](CO)NC(=O)[C@@H](NC(=O)[C@](C)(Cc1ccccc1)NC(=O)[C@H](CO)NC(=O)CNC(=O)[C@H](CCC(=O)O)NC(=O)C(C)(C)NC(=O)[C@@H](N)Cc1c[nH]cn1)[C@@H](C)O)C(C)C)C(=O)N[C@H](C(=O)N[C@@H](C)C(=O)N[C@@](C)(Cc1ccccc1)C(=O)N[C@H](C(=O)N[C@H](C(=O)N[C@@](C)(CCCCN)C(=O)NCC(=O)NCC(N)=O)C(C)C)C(C)C)[C@@H](C)CC)C(=O)O

What follows are binders tested against T1, glucose-dependent insulinotropic … (assay: cell-based or functional assay).

Question: Which results are given for B1?
Answer: cAMP Primary assay EC50 GIP-R: 28 nM; cAMP Primary assay EC50 GIP-R (2nd): 28 nM

Question: Which “cAMP Primary assay EC50 GIP-R” value does the source give for B2 here?
Answer: Its value is 26 nM.

Question: What about the “cAMP Primary assay EC50 GIP-R (2nd)” value of the same binder?
Answer: Its value is 26 nM.

Question: Which “cAMP Primary assay EC50 GIP-R” value does the source give for B3 here?
Answer: The value was 27 nM.

Question: And the “cAMP Primary assay EC50 GIP-R (2nd)” value?
Answer: Its value is 27 nM.

Question: Which results are given for B4?
Answer: cAMP Primary assay EC50 GIP-R: 28 nM; cAMP Primary assay EC50 GIP-R (2nd): 28 nM

Question: What does the source list for B5?
Answer: cAMP Primary assay EC50 GIP-R: 28 nM; cAMP Primary assay EC50 GIP-R (2nd): 28 nM

Question: With H[Aib]EGS[αMeF]TSDV[αMeS]S[αMeF]LEGEAAK([PEG2′-Stearoyl])E[αMeF]IA[αMeF]VV[αMeK]GG-NH2 [SEQ ID NO 152] as the binder, how does the “cAMP Primary assay EC50 GIP-R” value read?
Answer: Its value is 28 nM.

Question: And the “cAMP Primary assay EC50 GIP-R (2nd)” value?
Answer: Its value is 28 nM.

Each binder was assayed against GLP-1 receptor (GLP-1R) (human, UniProt P43220 24-463) (assay: cell-based or functional assay).

Question: Which “cAMP Mean pM GLP-1R” value does the source give for B1 here?
Answer: The value was 3.1 pM.

Question: What about the “cAMP Primary assay EC50 GLP-1R n1” value of the same binder?
Answer: Its value is 3.9 pM.

Question: What about the “cAMP Primary assay EC50 GLP-1R n2” value of the same binder?
Answer: Its value is 2.3 pM.

Question: B2 was tested. Which “cAMP Mean pM GLP-1R” value did it give?
Answer: The value was 18.2 pM.

Question: And the “cAMP Primary assay EC50 GLP-1R n1” value?
Answer: The value was 22 pM.

Question: And the “cAMP Primary assay EC50 GLP-1R n2” value?
Answer: The value was 15 pM.

Question: B3 was tested. Which “cAMP Mean pM GLP-1R” value did it give?
Answer: The value was 283 pM.

Question: What about the “cAMP Primary assay EC50 GLP-1R n1” value of the same binder?
Answer: Its value is 370 pM.

Question: And the “cAMP Primary assay EC50 GLP-1R n2” value?
Answer: The value was 200 pM.

Question: For B4, which “cAMP Mean pM GLP-1R” value is on record?
Answer: Its value is 24 pM.

Question: And the “cAMP Primary assay EC50 GLP-1R n1” value?
Answer: The value was 31 pM.

Question: And the “cAMP Primary assay EC50 GLP-1R n2” value?
Answer: The value was 17 pM.

Question: B5 was tested. Which “cAMP Mean pM GLP-1R” value did it give?
Answer: The value was 14 pM.

Question: What about the “cAMP Primary assay EC50 GLP-1R n1” value of the same binder?
Answer: Its value is 18 pM.

Question: What about the “cAMP Primary assay EC50 GLP-1R n2” value of the same binder?
Answer: The value was 9.3 pM.

Question: How did the “cAMP Mean pM GLP-1R” value turn out when H[Aib]EGS[αMeF]TSDV[αMeS]S[αMeF]LEGEAAK([PEG2′-Stearoyl])E[αMeF]IA[αMeF]VV[αMeK]GG-NH2 [SEQ ID NO 152] was run?
Answer: The value was 34.7 pM.

Question: And the “cAMP Primary assay EC50 GLP-1R n1” value?
Answer: The value was 39 pM.

Question: What about the “cAMP Primary assay EC50 GLP-1R n2” value of the same binder?
Answer: Its value is 31 pM.

What follows are binders tested against glucagon receptor (GCGR) (human, UniProt P47871 26-477) (assay: cell-based or functional assay).
Sequence of glucagon receptor (GCGR) (P47871 26-477): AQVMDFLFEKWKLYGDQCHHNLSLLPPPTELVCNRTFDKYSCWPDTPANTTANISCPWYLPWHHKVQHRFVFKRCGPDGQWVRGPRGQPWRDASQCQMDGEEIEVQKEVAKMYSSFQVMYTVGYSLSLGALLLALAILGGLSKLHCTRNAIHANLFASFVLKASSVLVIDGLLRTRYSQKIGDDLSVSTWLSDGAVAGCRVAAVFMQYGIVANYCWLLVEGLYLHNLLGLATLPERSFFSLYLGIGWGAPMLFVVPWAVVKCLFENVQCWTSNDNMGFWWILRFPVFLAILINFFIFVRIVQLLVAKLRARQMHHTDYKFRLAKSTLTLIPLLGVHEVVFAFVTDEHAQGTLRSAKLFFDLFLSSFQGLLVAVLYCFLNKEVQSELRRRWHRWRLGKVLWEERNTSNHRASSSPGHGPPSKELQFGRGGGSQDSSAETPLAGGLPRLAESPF

Question: Which “cAMP Primary assay EC50 Gluc-R” value does the source give for B1 here?
Answer: Its value is 28 nM.

Question: What about the “cAMP Primary assay EC50 Gluc-R (2nd)” value of the same binder?
Answer: Its value is 28 nM.

Question: How did the “cAMP Primary assay EC50 Gluc-R” value turn out when B2 was run?
Answer: The value was 26 nM.

Question: And the “cAMP Primary assay EC50 Gluc-R (2nd)” value?
Answer: The value was 26 nM.

Question: How did the “cAMP Primary assay EC50 Gluc-R” value turn out when B3 was run?
Answer: Its value is 27 nM.

Question: And the “cAMP Primary assay EC50 Gluc-R (2nd)” value?
Answer: Its value is 27 nM.

Question: B4 was tested. Which “cAMP Primary assay EC50 Gluc-R” value did it give?
Answer: Its value is 28 nM.

Question: What about the “cAMP Primary assay EC50 Gluc-R (2nd)” value of the same binder?
Answer: The value was 28 nM.

Question: What does the source list for B5?
Answer: cAMP Primary assay EC50 Gluc-R: 28 nM; cAMP Primary assay EC50 Gluc-R (2nd): 28 nM

Question: What does the source list for H[Aib]EGS[αMeF]TSDV[αMeS]S[αMeF]LEGEAAK([PEG2′-Stearoyl])E[αMeF]IA[αMeF]VV[αMeK]GG-NH2 [SEQ ID NO 152]?
Answer: cAMP Primary assay EC50 Gluc-R: 28 nM; cAMP Primary assay EC50 Gluc-R (2nd): 28 nM
